Here are results for one molecule from patent publication US20180155432A1 (INSTITUT NATIONAL DE LA RECHERCHE SCIENTIFIQUE, published 2018).

The assay addresses T1, recombinant human galectin-1 (human, UniProt P09382 2-135).
T1 construct: Used as the galectin selectivity control; also called hGal-1; Gal-1
Description: solid phase fluorescent binding assay; galectin coated at 10 µg/ml, streptavidin R-phycoerythrin detection. How it is done: Recombinant hGal-7 or hGal-1 (10 μg/mL) was coated overnight at 4° C. on black, flat bottom, 96-well polystyrene microplates (Ultident®, Montreal, QC, Canada). Thereafter, the plate was blocked with Reagent diluent (PBS-BSA 1%) for 1h, then incubated with unlabeled hGal-7₍₁₂₉₋₁₃₅₎ (cold) for 60 min and finally incubated with biotin-labeled [Ah⁰]hGal-7₍₁₂₉₋₁₃₅₎ for 2h. Lastly, Streptavidin R-phycoerythrin (1/500, Jackson Immunoresearch®, West Grove, Pa., USA) was applied to samples for 30 min. All incubations were performed at room temperature and the washes between incubations were done with 20 mM potassium phosphate buffer pH 7.1. The plate was read by a Tecan® Infinite M1000 PRO microplate reader at excitation and emission wavelengths of 488 nm and 670 nm, respectively.

T1 sequence (P09382 2-135 limits assumed): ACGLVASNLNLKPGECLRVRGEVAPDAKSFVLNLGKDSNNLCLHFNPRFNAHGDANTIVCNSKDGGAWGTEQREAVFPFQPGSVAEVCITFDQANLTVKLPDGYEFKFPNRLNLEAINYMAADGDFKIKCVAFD

B1: biotin-labeled [Ahx0]hGal-7(129-135) (peptide)
peptide: LDSVRIF
HELM: PEPTIDE1{[O=C1N[C@H]2[C@H](CS[C@H]2CCCCC(=O)[*:2])N1].[O=C(CCCCCN[*:1])[*:2]].L.D.S.V.R.I.F.[am]}$$$$V2.0
SMILES: CC[C@H](C)[C@H](NC(=O)[C@H](CCCNC(=N)N)NC(=O)[C@@H](NC(=O)[C@H](CO)NC(=O)[C@H](CC(=O)O)NC(=O)[C@H](CC(C)C)NC(=O)CCCCCNC(=O)CCCC[C@@H]1SC[C@@H]2NC(=O)N[C@@H]21)C(C)C)C(=O)N[C@@H](Cc1ccccc1)C(N)=O
On to B1, for which the binding result is listed as “no binding”.
